Experimental data taken from patent publication US20160333061A1.

Key:
Experiment in all cases: cell-based or functional assay
[1] = molecular target: CytERM-EBFP2 (Aequorea victoria (Water jellyfish) (Mesonema victoria)) [GFP: P42212]
[2] = molecular target: CytERM-mTagBFP
[3] = molecular target: CytERM-moxBFP (Aequorea victoria (Water jellyfish) (Mesonema victoria)) [GFP: P42212]

CytERM-EBFP2 (from UniProt P42212 2-238)
% Cells with OSER Structures (n = cells) [1]: 63.7%

CytERM-mTagBFP
% Cells with OSER Structures (n = cells) [2]: 43.5%

CytERM-moxBFP (from UniProt P42212 2-238)
% Cells with OSER Structures (n = cells) [3]: 0.9%
